Data taken from the supplement of paper PMC7125110.
± gives the standard error. Fewer inactive variants are shown than the library holds.

B1: glmS ribozyme (parent)
chain: AUAAAAGCGCCAGAACUACAGAAAUGUAGUUGACGAGGAGGAGGUUUAUCGAAUUUUCGGCGGAUGCCUCCAAA

Variants of: B1
Experiment: self-cleavage kobs at 2500 uM GlcN6P; higher = faster cleavage; RNA array
Conditions: with glucosamine-6-phosphate
Procedure, shortened: (§1)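 Barcoded ribozyme variants on sequenced MiSeq chips were transcribed in situ by E. coli RNA polymerase and followed at 37 °C through a hybridised Cy3 probe. Glucosamine-6-phosphate at 40 μM to 10 mM in HEPES/KCl/Mg(OAc)2 buffer was flowed in, and tiles were imaged over ~14 h. Signals were normalised to baseline and to non-cleaving reference variants, and per-tile medians were fit to one- or two-exponential decays to give kobs. Weighted Michaelis–Menten fits across concentrations gave kcat and KM.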
For U49C C50U U56G, the “self-cleavage kobs at 2500 uM GlcN6P” value was under 1e-05 s⁻¹.
For A12G C16U G43A U45C, the “self-cleavage kobs at 2500 uM GlcN6P” value was under 1e-05 s⁻¹.
For C10G U46G U55A A64C U69G, the “self-cleavage kobs at 2500 uM GlcN6P” value was under 1e-05 s⁻¹.
In the case of A15G U49G C50A G60C, the “self-cleavage kobs at 2500 uM GlcN6P” value is reported as under 1e-05 s⁻¹.
A33C G51A U54C was tested, and the “self-cleavage kobs at 2500 uM GlcN6P” value was under 1e-05 s⁻¹.
G29A G35U A42G A52U was tested, and the “self-cleavage kobs at 2500 uM GlcN6P” value was under 1e-05 s⁻¹.
In the case of U55G C58G G60U, the “self-cleavage kobs at 2500 uM GlcN6P” value is reported as under 1e-05 s⁻¹.
U31G G44C G59C was tested, and the “self-cleavage kobs at 2500 uM GlcN6P” value was under 1e-05 s⁻¹.
In the case of A6G A12C U55C C67U, the “self-cleavage kobs at 2500 uM GlcN6P” value is reported as under 1e-05 s⁻¹.
A39G G40U U54A was tested, and the “self-cleavage kobs at 2500 uM GlcN6P” value was 0.000126 ± 6.2e-05 s⁻¹.
In the case of A15U G44A G51A A53U, the “self-cleavage kobs at 2500 uM GlcN6P” value is reported as under 1e-05 s⁻¹.
A36G U46A C70A was tested, and the “self-cleavage kobs at 2500 uM GlcN6P” value was under 1e-05 s⁻¹.
With G13U A36G G60A C61U the “self-cleavage kobs at 2500 uM GlcN6P” value was under 1e-05 s⁻¹.
In the case of A48C C50G A64C, the “self-cleavage kobs at 2500 uM GlcN6P” value is reported as under 1e-05 s⁻¹.
A15G G44U A64U U65G was tested, and the “self-cleavage kobs at 2500 uM GlcN6P” value was under 1e-05 s⁻¹.
For A12U G38U U49A, the “self-cleavage kobs at 2500 uM GlcN6P” value was under 1e-05 s⁻¹.
G35U G40A G41U U45G A53G was tested, and the “self-cleavage kobs at 2500 uM GlcN6P” value was under 1e-05 s⁻¹.
In the case of C8A G40C U47A A64U, the “self-cleavage kobs at 2500 uM GlcN6P” value is reported as under 1e-05 s⁻¹.
G62U C68U C71A was tested, and the “self-cleavage kobs at 2500 uM GlcN6P” value was under 1e-05 s⁻¹.
In the case of A12G G29U U47G, the “self-cleavage kobs at 2500 uM GlcN6P” value is reported as 6.74e-05 ± 1.5e-05 s⁻¹.
With C16G G40U U69G the “self-cleavage kobs at 2500 uM GlcN6P” value was under 1e-05 s⁻¹.
With G40A G44A the “self-cleavage kobs at 2500 uM GlcN6P” value was 4.13e-05 ± 1.2e-05 s⁻¹.
In the case of G7U G32C G40U U45G, the “self-cleavage kobs at 2500 uM GlcN6P” value is reported as under 1e-05 s⁻¹.
In the case of C11U C34A G44A, the “self-cleavage kobs at 2500 uM GlcN6P” value is reported as under 1e-05 s⁻¹.
In the case of G9C G13U A48G, the “self-cleavage kobs at 2500 uM GlcN6P” value is reported as under 1e-05 s⁻¹.
U31C A42U U56C G66C was tested, and the “self-cleavage kobs at 2500 uM GlcN6P” value was under 1e-05 s⁻¹.
With A14U G51U G60U the “self-cleavage kobs at 2500 uM GlcN6P” value was under 1e-05 s⁻¹.
With C10U A36C G40U G59U C67G the “self-cleavage kobs at 2500 uM GlcN6P” value was under 1e-05 s⁻¹.
G40A U47C U54C was tested, and the “self-cleavage kobs at 2500 uM GlcN6P” value was 0.00058 ± 0.00013 s⁻¹.
U55C G59U was tested, and the “self-cleavage kobs at 2500 uM GlcN6P” value was 3.25e-05 ± 1.3e-05 s⁻¹.
In the case of G37U G43C A48C C61U G63U, the “self-cleavage kobs at 2500 uM GlcN6P” value is reported as under 1e-05 s⁻¹.
In the case of G13U A36U A53C, the “self-cleavage kobs at 2500 uM GlcN6P” value is reported as under 1e-05 s⁻¹.
A14U G32C U47A was tested, and the “self-cleavage kobs at 2500 uM GlcN6P” value was 8.18e-05 ± 1.8e-05 s⁻¹.
A12U U47G U65G was tested, and the “self-cleavage kobs at 2500 uM GlcN6P” value was 0.00179 ± 0.0004 s⁻¹.
In the case of A6U U47A U57C, the “self-cleavage kobs at 2500 uM GlcN6P” value is reported as under 1e-05 s⁻¹.
U30C G66A C67G was tested, and the “self-cleavage kobs at 2500 uM GlcN6P” value was 4.46e-05 ± 1.2e-05 s⁻¹.
A15C U31A A53G C71G was tested, and the “self-cleavage kobs at 2500 uM GlcN6P” value was 0.000222 ± 4.5e-05 s⁻¹.
For C11U G29U C67G, the “self-cleavage kobs at 2500 uM GlcN6P” value was 0.000197 ± 6.6e-05 s⁻¹.
C34A G59A C70A was tested, and the “self-cleavage kobs at 2500 uM GlcN6P” value was under 1e-05 s⁻¹.
In the case of G9C G32C C70A, the “self-cleavage kobs at 2500 uM GlcN6P” value is reported as under 1e-05 s⁻¹.
In the case of U56G C58A C71A, the “self-cleavage kobs at 2500 uM GlcN6P” value is reported as 3.99e-05 ± 1.6e-05 s⁻¹.
C11U C34G A52U was tested, and the “self-cleavage kobs at 2500 uM GlcN6P” value was under 1e-05 s⁻¹.
For U31C U56G C67A, the “self-cleavage kobs at 2500 uM GlcN6P” value was 6.88e-05 ± 1.8e-05 s⁻¹.
G37A U49G A52U G59A was tested, and the “self-cleavage kobs at 2500 uM GlcN6P” value was under 1e-05 s⁻¹.
C11U A15G G37C U47C U69G was tested, and the “self-cleavage kobs at 2500 uM GlcN6P” value was 0.000136 ± 5.1e-05 s⁻¹.
With G35C G44U A52G U54A C67U the “self-cleavage kobs at 2500 uM GlcN6P” value was under 1e-05 s⁻¹.
With G7U G41C C50U the “self-cleavage kobs at 2500 uM GlcN6P” value was under 1e-05 s⁻¹.
In the case of C34A G38U C50G, the “self-cleavage kobs at 2500 uM GlcN6P” value is reported as 9.01e-05 ± 3e-05 s⁻¹.
With G32C G37A A42C A53C the “self-cleavage kobs at 2500 uM GlcN6P” value was under 1e-05 s⁻¹.
With G7U U31G C61A C70A the “self-cleavage kobs at 2500 uM GlcN6P” value was under 1e-05 s⁻¹.
In the case of A6C A42U G59U, the “self-cleavage kobs at 2500 uM GlcN6P” value is reported as under 1e-05 s⁻¹.
In the case of C11U U46A G62A, the “self-cleavage kobs at 2500 uM GlcN6P” value is reported as under 1e-05 s⁻¹.
C34A G35A C67G C68A C71A was tested, and the “self-cleavage kobs at 2500 uM GlcN6P” value was 0.000155 ± 6.4e-05 s⁻¹.
For G9U A52U C58G, the “self-cleavage kobs at 2500 uM GlcN6P” value was under 1e-05 s⁻¹.
With C10G G37C U49G C68G U69G the “self-cleavage kobs at 2500 uM GlcN6P” value was 9.24e-05 ± 4.5e-05 s⁻¹.
A14U A33G A52G C68U C70G C71A was tested, and the “self-cleavage kobs at 2500 uM GlcN6P” value was 0.000285 ± 9.7e-05 s⁻¹.
In the case of A15G A48C C50U, the “self-cleavage kobs at 2500 uM GlcN6P” value is reported as under 1e-05 s⁻¹.
G7U G9C U47A U56G G59U C70A was tested, and the “self-cleavage kobs at 2500 uM GlcN6P” value was under 1e-05 s⁻¹.
G7C U30G G32U A64G was tested, and the “self-cleavage kobs at 2500 uM GlcN6P” value was under 1e-05 s⁻¹.
For G29C A33G A53U A64G U69G, the “self-cleavage kobs at 2500 uM GlcN6P” value was 0.000129 ± 4.1e-05 s⁻¹.
In the case of G43C U47A G62U C71U, the “self-cleavage kobs at 2500 uM GlcN6P” value is reported as under 1e-05 s⁻¹.
C10G G40C G59U was tested, and the “self-cleavage kobs at 2500 uM GlcN6P” value was under 1e-05 s⁻¹.
For G37U A42C U47A A48U U56A, the “self-cleavage kobs at 2500 uM GlcN6P” value was under 1e-05 s⁻¹.
With C10U G40A G44C C70A the “self-cleavage kobs at 2500 uM GlcN6P” value was under 1e-05 s⁻¹.
For C10U A14C A15U G41A, the “self-cleavage kobs at 2500 uM GlcN6P” value was under 1e-05 s⁻¹.
For A33C A39G C70A, the “self-cleavage kobs at 2500 uM GlcN6P” value was under 1e-05 s⁻¹.
In the case of G7U G32A A48G U54A, the “self-cleavage kobs at 2500 uM GlcN6P” value is reported as under 1e-05 s⁻¹.
For C10G A14U G35U G60C, the “self-cleavage kobs at 2500 uM GlcN6P” value was under 1e-05 s⁻¹.
For C16A A33U A52U, the “self-cleavage kobs at 2500 uM GlcN6P” value was under 1e-05 s⁻¹.
A42U C58U U65G was tested, and the “self-cleavage kobs at 2500 uM GlcN6P” value was under 1e-05 s⁻¹.
For G32U G37C G43U, the “self-cleavage kobs at 2500 uM GlcN6P” value was under 1e-05 s⁻¹.
With G7U C8G U49A the “self-cleavage kobs at 2500 uM GlcN6P” value was under 1e-05 s⁻¹.
With G37A U49A A52G the “self-cleavage kobs at 2500 uM GlcN6P” value was under 1e-05 s⁻¹.
With A15C A64G C68A the “self-cleavage kobs at 2500 uM GlcN6P” value was under 1e-05 s⁻¹.
With C34U C58U U65A the “self-cleavage kobs at 2500 uM GlcN6P” value was under 1e-05 s⁻¹.
In the case of G38U G40U A48U C68G, the “self-cleavage kobs at 2500 uM GlcN6P” value is reported as under 1e-05 s⁻¹.
U54G C58G A64G C71U was tested, and the “self-cleavage kobs at 2500 uM GlcN6P” value was 5.26e-05 ± 2.3e-05 s⁻¹.
U31C G37A G59A C61U G66A was tested, and the “self-cleavage kobs at 2500 uM GlcN6P” value was under 1e-05 s⁻¹.
With U31G U56A G66U the “self-cleavage kobs at 2500 uM GlcN6P” value was 7.04e-05 ± 1.3e-05 s⁻¹.
For G13C G44C A53U, the “self-cleavage kobs at 2500 uM GlcN6P” value was under 1e-05 s⁻¹.
G29U G37A G38C G60U was tested, and the “self-cleavage kobs at 2500 uM GlcN6P” value was under 1e-05 s⁻¹.
A14U U54C U65G was tested, and the “self-cleavage kobs at 2500 uM GlcN6P” value was 0.000411 ± 0.00014 s⁻¹.

Variants of: B1
Experiment: self-cleavage kobs at 10000 uM GlcN6P; higher = faster cleavage; RNA array
Conditions: with glucosamine-6-phosphate
Procedure, shortened: as §1
For C10U A36C G40U G59U C67G, the “self-cleavage kobs at 10000 uM GlcN6P” value was under 1e-05 s⁻¹.
With U55C G59U the “self-cleavage kobs at 10000 uM GlcN6P” value was 2.55e-05 ± 1.2e-05 s⁻¹.
G13U A36U A53C was tested, and the “self-cleavage kobs at 10000 uM GlcN6P” value was under 1e-05 s⁻¹.
In the case of C11U C34G A52U, the “self-cleavage kobs at 10000 uM GlcN6P” value is reported as under 1e-05 s⁻¹.
In the case of G37A U49A A52G, the “self-cleavage kobs at 10000 uM GlcN6P” value is reported as under 1e-05 s⁻¹.
For U54G C58G A64G C71U, the “self-cleavage kobs at 10000 uM GlcN6P” value was 4.18e-05 ± 1.4e-05 s⁻¹.
For U31C G37A G59A C61U G66A, the “self-cleavage kobs at 10000 uM GlcN6P” value was under 1e-05 s⁻¹.
